Here are results for 1 molecule from publication PMC10942467 (bioRxiv, 2024).

This assay addresses 6X His-Raf1 (purified recombinant) (UniProt P04049 1-648, fluorescent label in the MST (kind and site not stated)). Kind of assay: MST.

B1: GLS (purified recombinant) (enzyme)
chain: HPWWGGGGWPAEPLARGLSSSPSEILQELGKGSTHPQPGVSPPAAPAAPGPKDGPGETDAFGNSEGKELVASGENKIKQGLLPSLEDLLFYTIAEGQEKIPVHKFITALKSTGLRTSDPRLKECMDMLRLTLQTTSDGVMLDKDLFKKCVQSNIVLLTQAFRRKFVIPDFMSFTSHIDELYESAKKQSGGKVADYIPQLAKFSPDLWGVSVCTVDGQRHSTGDTKVPFCLQSCVKPLKYAIAVNDLGTEYVHRYVGKEPSGLRFNKLFLNEDDKPHNPMVNAGAIVVTSLIKQGVNNAEKFDYVMQFLNKMAGNEYVGFSNATFQSERESGDRNFAIGYYLKEKKCFPEGTDMVGILDFYFQLCSIEVTCESASVMAATLANGGFCPITGERVLSPEAVRNTLSLMHSCGMYDFSGQFAFHVGLPAKSGVAGGILLVVPNVMGMMCWSPPLDKMGNSVKGIHFCHDLVSLCNFHNYDNLRHFAKKLDPRREGGDQRVKSVINLLFAAYTGDVSALRRFALSAMDMEQRDYDSRTALHVAAAEGHVEVVKFLLEACKVNPFPKDRWNNTPMDEALHFGHHDVFKILQEYQVQYTPQGDSDNGKENQTVHKNLDGLL
For orientation: Kd means a measure of binding affinity in units of concentration. B1: the Kd amounted to 183 nM.
